Reference: patent US20120058906A1 (published 2012)
Values belong to the binder of their own block, whether it stands above or below them.

Columns and labels:
[1] = target: T1, rHuman IGF-1 sR (IGF-1 sR), CF (R&D Systems Cat#391-GR) (human, UniProt P08069 31-932); assay: MSD ECL multi-spot plate, antigen immobilized; Fab 1000 nM; blank spot 427
T1 construct: Purchased soluble receptor; also called insulin-like growth factor-1 soluble receptor; IGF-R1

[2] = target: T2, rHuman EGF R/Fc Chimera, CF (R&D Systems Cat#344-ER) (human, UniProt P00533 25-645); assay: as above
T2 construct: Purchased Fc chimera; not shown: Fc portion of the purchased chimera

[3] = target: T3, rHuman Notch-1/Fc Chimera, CF (R&D Systems Cat#3647-TK) (human, UniProt P46531 19-526); assay: as above
T3 construct: Purchased Fc chimera; not shown: Fc portion of the purchased chimera

[4] = target: T4, rHuman ErbB2/Fc Chimera, CF (R&D Systems Cat#1129-ER) (human, UniProt P04626 23-652); assay: as above
T4 construct: Purchased Fc chimera; also called HER2/neu; not shown: Fc portion of the purchased chimera

[5] = target: T5, rHuman Erythropoietin R/Fc Chimera, CF (R&D Systems Cat#963-ER) (human, UniProt P19235 25-250); assay: as above
T5 construct: Purchased Fc chimera; also called EPO R/Fc; Epo R; not shown: Fc portion of the purchased chimera
T5 sequence: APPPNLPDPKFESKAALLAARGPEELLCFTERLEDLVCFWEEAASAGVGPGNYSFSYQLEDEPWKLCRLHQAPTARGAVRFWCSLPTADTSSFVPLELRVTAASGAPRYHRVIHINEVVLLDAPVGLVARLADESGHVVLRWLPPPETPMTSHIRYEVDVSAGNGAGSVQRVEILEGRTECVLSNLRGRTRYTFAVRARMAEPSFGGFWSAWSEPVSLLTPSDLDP

[6] = target: T6, rHuman CD44/Fc Chimera, CF (R&D Systems Cat#3660-CD) (human, UniProt P16070 21-220); assay: as above
T6 construct: Purchased Fc chimera; not shown: Fc portion of the purchased chimera

[7] = target: T7, Recombinant Human DLL4 (R&D Systems Cat#1506-D4/CF) (human, UniProt Q9NR61 27-524); assay: as above
T7 construct: Purchased recombinant protein; also called delta-like protein 4

[8] = target: T8, rHuman P-Cadherin/Fc Chimera, CF (R&D Systems Cat#861-PC) (human, UniProt P22223 108-654); assay: as above
T8 construct: Purchased Fc chimera; not shown: Fc portion of the purchased chimera

[9] = target: T9, rHuman HGF R/c-MET/Fc Chimera, CF (R&D Systems Cat#358-MT/CF) (human, UniProt P08581 25-932); assay: as above
T9 construct: Purchased Fc chimera; also called HGF R/Fc; not shown: Fc portion of the purchased chimera

[10] = target: T10, rHuman ErbB2/Fc Chimera, CF (R&D Systems Cat#1129-ER) (human, UniProt P04626 23-652); assay: ECL (MSD multi-spot), antigen on plate, Fab 0.4 nM
T10 construct: Bought Fc chimera; also called HER2/neu; not shown: Fc of the bought chimera

[11] = target: T11, rHuman Erythropoietin R/Fc Chimera, CF (R&D Systems Cat#963-ER) (human, UniProt P19235 25-250); assay: ECL (MSD multi-spot), antigen on plate, Fab 0.4 nM
T11 construct: Bought Fc chimera; also called EPO R/Fc; Epo R; not shown: Fc of the bought chimera
T11 sequence: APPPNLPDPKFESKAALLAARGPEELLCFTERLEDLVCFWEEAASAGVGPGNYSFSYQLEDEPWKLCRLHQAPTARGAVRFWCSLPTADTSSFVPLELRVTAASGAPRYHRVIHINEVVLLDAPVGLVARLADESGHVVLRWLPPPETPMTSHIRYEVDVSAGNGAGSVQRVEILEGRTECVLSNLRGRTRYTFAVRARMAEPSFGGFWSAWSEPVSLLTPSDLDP

[12] = target: T12, rHuman CD44/Fc Chimera, CF (R&D Systems Cat#3660-CD) (human, UniProt P16070 21-220); assay: ECL (MSD multi-spot), antigen on plate, Fab 0.4 nM
T12 construct: Bought Fc chimera; not shown: Fc of the bought chimera

[13] = target: T13, rHuman P-Cadherin/Fc Chimera, CF (R&D Systems Cat#861-PC) (human, UniProt P22223 108-654); assay: ECL (MSD multi-spot), antigen on plate, Fab 0.4 nM
T13 construct: Bought Fc chimera; also called CDH3; not shown: Fc of the bought chimera

[14] = target: T14, rHuman EGF R/Fc Chimera, CF (R&D Systems Cat#344-ER) (human, UniProt P00533 25-645); assay: ECL (MSD multi-spot), antigen on plate, Fab 0.4 nM
T14 construct: Bought Fc chimera; also called ErbB-1; not shown: Fc of the bought chimera

[15] = target: T15, rHuman IGF-1 sR (insulin-like growth factor-1 soluble receptor), CF (R&D Systems Cat#391-GR) (human, UniProt P08069 31-932); assay: ECL (MSD multi-spot), antigen on plate, Fab 0.4 nM
T15 construct: Bought soluble receptor; also called IGF-R1

[16] = target: T16, rHuman HGF R/c-MET/Fc Chimera, CF (R&D Systems Cat#358-MT/CF) (human, UniProt P08581 25-932); assay: ECL (MSD multi-spot), antigen on plate, Fab 0.4 nM
T16 construct: Bought Fc chimera; also called HGF R/Fc; not shown: Fc of the bought chimera

[17] = target: T17, Recombinant Human DLL4 (R&D Systems Cat#1506-D4/CF) (human, UniProt Q9NR61 27-524); assay: ECL (MSD multi-spot), antigen on plate, Fab 0.4 nM
T17 construct: Bought recombinant protein; also called delta-like protein 4

[18] = target: T12, rHuman CD44/Fc Chimera, CF (R&D Systems …); assay: ECL (MSD multi-spot), antigen on plate, Fab 0.4 nM; remark: listed apart in the source
[19] = target: T18, rHuman Notch-1/Fc Chimera, CF (R&D Systems Cat#3647-TK) (human, UniProt P46531 19-526); assay: ECL (MSD multi-spot), antigen on plate, Fab 0.4 nM
T18 construct: Bought Fc chimera; not shown: Fc of the bought chimera
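Note: blank spot per well as comparator with Hit at signal to blank ratio of 4 or more.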

ECL signal [1]: 733 ECL signal
ECL signal [2]: 721 ECL signal
ECL signal [3]: 761 ECL signal
ECL signal [4]: 945 ECL signal
ECL signal [5]: 666 ECL signal
ECL signal [6]: 559 ECL signal
ECL signal [7]: 23400 ECL signal
ECL signal [8]: 762 ECL signal
ECL signal [9]: 778 ECL signal
B1: Fab VH5-51_IGHD5-18*01>3_IGHJ4*01_G100R & V3-4_IGLJ1*01 (Fab, V domains shown)
VH: EVQLVQSGAEVKKPGESLKISCKGSGYSFTSYWIGWVRQMPGKGLEWMGIIYPGDSDTRYSPSFQGQVTISADKSISTAYLQWSSLKASDTAMYYCARRRYSYGYDYFDYWGQGTLVTVSS
VL: QTVVTQEPSFSVSPGGTVTLTCGLSSGSVSTSYYPSWYQQTPGQAPRTLIYSTNTRSSGVPDRFSGSILGNKAALTITGAQADDESDYYCVLYMGSGISYVFGTGTKVTVL
notes: It was expressed as a Fab: CH1 with tags from Plasmid A and lambda CL from Plasmid E; also called Fab No. 23

ECL signal [10]: 275 ECL signal
ECL signal [11]: 147 ECL signal
ECL signal [12]: 257 ECL signal
ECL signal [13]: 191 ECL signal
ECL signal [14]: 246 ECL signal
ECL signal [15]: 172 ECL signal
ECL signal [16]: 199 ECL signal
ECL signal [17]: 1140 ECL signal
B2: Fab VH1-46_IGHD6-6*01_IGHJ1*01_S102A_S103P_S104F & L6_IGKJ1*01_S28P (Fab, V domains shown)
VH: QVQLVQSGAEVKKPGASVKVSCKASGYTFTSYYMHWVRQAPGQGLEWMGIINPSGGSTSYAQKFQGRVTMTRDTSTSTVYMELSSLRSEDTAVYYCAREEYAPFSAEYFQHWGQGTLVTVSS
VL: EIVLTQSPATLSLSPGERATLSCRASQPVSSYLAWYQQKPGQAPRLLIYDASNRATGIPARFSGSGSGTDFTLTISSLEPEDFAVYYCQQRSNWPPWTFGQGTKVEIKR
notes: Fab

ECL signal [18]: 176 ECL signal
ECL signal [19]: 197 ECL signal
B3: Fab VH1-46_IGHD6-6*01_IGHJ1*01_S102A_S103P_S104F & L6_IGKJ1*01_S30N (Fab, V domains shown)
VH: QVQLVQSGAEVKKPGASVKVSCKASGYTFTSYYMHWVRQAPGQGLEWMGIINPSGGSTSYAQKFQGRVTMTRDTSTSTVYMELSSLRSEDTAVYYCAREEYAPFSAEYFQHWGQGTLVTVSS
VL: EIVLTQSPATLSLSPGERATLSCRASQSVNSYLAWYQQKPGQAPRLLIYDASNRATGIPARFSGSGSGTDFTLTISSLEPEDFAVYYCQQRSNWPPWTFGQGTKVEIKR
notes: Fab
